Assay results from a protein production outcome set (Wang et al. 2014).

Assay: label from the status in PepcDB records

Sequence	protein production
MNKVQSIDPLIADKFNNELRSYNLEYKLEQESLNKEIDEALKNYASKNGGLGGNRPDVKLLLNTQDPNRRVPILIEYKGLKDKLIKLDKNKLVENFKNHEPHYKNIREYALNGALHYANAILHHTSYTECIAIGITGYKDNKGGICSQIAVYYVNKSNLGMGIDVSKGEQGYSDLSFLSRKHFNDFIKRVDTLSLSDEDLERIREKKNQEIEDCLMRLNNNIYNKEKNFLSEHNRVYLVIASIIANLGIPNLVTPLNKEDLKSSDEVHQRDGDIMLRKIQSFLENKDLSPEKRQSIISSLETLLRNENNNKATNGESCLKRCFSEIVDSLGIYYKIGLSTDFTGKLFNEMYRWLGFTKDQLNDVVLTPPYVATLLARLSKVNKDSFVWDFATGSAGLLVASMNLMIEDAKKRITSPEELEQKIAHIKAKQLLGIEILSDIHTLAVLNMILMGDGSSQILNQDGLSGFDGKVNNEAFKANAFVLNPPYSASGNGMVFVEQALEKMQSGYASVIIQSSAGSGKAKEYNVRILEKHTLLASIKMPLDLFIGKSSVQTHIYVFRVNEKHDAKQRVKFINFSNDGYARANRKKAKASHNLKDTHNAKERYNEVVDLVHIGQSCLKFLSEDDYYENTIDPKNGSDWNQNKPTDTKPELEDFKRTIADYLSYEVSLILKNQMPPKR	failed
MRKILEKVRRNRTYSFGKDLYDRTMRDDVAGLAAQLAYFFLLAIFPGLVFLITLLGFIDLQTESVLNLLEPYVPEDAMSLIEVNVDKVVNEQNGGLLSFGLLSMLWFASNGVNAVMNAFNRAYDVTETRSFIKTRALSIVFTLAIIFMIVFALIVPVFGQVIGAAVFKAIGLSDSFSYVWSITRLVASFFVLFALFSFLYTFAPDRKLKRREVISGATFATVGWIVVSYSFAYYVDKFANYANTYGGLGGIIILMLWFYLTGWVILLGGEINGLLHHYRTGDNNSRNEK	failed
MSRKILDRYIAKTVLSAIGLVTLMLVGLQIFILFVNQIDDLGRADYGIVQAGVFVLLQMPYQVYLFFPIASLLGCLVGLGVLANHSELVVMRAAGISIGQITGAVLKASLIVILLITSLGETIVPVMAHYANEYKVSALTGGQALLTPRGVWVRNGNDFVSIASVTHENTLRYVNQFRFDNQHNLKLARQISEVKYVNNSWIAYDVKQTEFAEDHTKAHHFDTLPWDVPVKPEILKITGTNPDEMTLHELNRYLREQQRNHQNVANYKFAFFQRITQPLNTMVMMILAIPFIFGPLRSSTMGSKLLVGAMVGFGFHILNRFFGPVSTVFQWPPELAAFSPTLIFSLIGIYLMRRVR	failed
MSSVPRFWRNLGSRYNLEGTRCKECGEYFYPPRNVCVNCRRMGELEPFKFKGTGEIVSYTLIHTGAEGFEGQAPYTLAIIKLDEGPRLTSQVVGNTDNIQIGTRVRSVFRKLGEDGERGMIYYGTKFVPVDALEHHHHHH	not failed
MKHAKKSLFTFIIFMTILSITFNPFSAKAAPLMLNLPAPQVDQLYIGDDYITGKLQQEVPMHYPGNAAYVLFNNKQYNITDYTVENDVNFRLKLPKTLEAGDTLNYFTITGNVLDPVAYPGQESYKLAGPFSPIEKANIQVNYVDETNQTLATSDTLSGKLGETYTTSPKAIDGYQVKETPTNATGTYTTNTETIQINYVYEKTAVEGANVSVEYINEATNESIAPTETLSGKIGTTFQAEVKEIDGYELSQVPSNQSGTYTDQTQSVIFKYKKITTPDEVAKDVTVTYKDTKGNQLADPVILKGDIGSTFETEAKSFKGYKLTKTPSNHSSVFTSDSQEVEYVYSKDDAVITPPVTPVNPDKPIINPVKPVNPATSTVPNKNISKKNTTKTVNQTGKTSTALQLPKTGDSENNLPLIIGVSLLISGVYIFTTRRKRVK	failed
MPRITTDTIIADVLRIDRGTIPIFLNNGLHCLGCPSAQGESIEEACALHGIDAQKLVDELNEYLKSKGLLDLEHHHHHH	not failed
MSTSTSCPIPGGRDQLPDCYSTTPGGTLYATTPGGTRIIYDRKFLLECKNSPIARTPPCCLPQIPGVTTPPTAPLSKLEELKEQETEEEIPDDAQFEMDI	failed
MSSSGIEIAKPFVTATTNVLSTMAGIQPIPGQPYVKKNNVAKGDVSAVVGITGHKNGSISVTFTKQCAIAVVKAMLGDDIQDIIQDTKDAVGEVTNMISGQARAALSEMGMTFQGATPSVIMGDGHTISHVTKSPVIAIPFKTNHGEFTVEFCLE	not failed
